Laboratory results as given in paper PMC9413769.

Biological target: eGFP-Unr (UniProt O75534)
Assay: FRET or BRET

UniProt O75534, sequence (O75534 whole entry): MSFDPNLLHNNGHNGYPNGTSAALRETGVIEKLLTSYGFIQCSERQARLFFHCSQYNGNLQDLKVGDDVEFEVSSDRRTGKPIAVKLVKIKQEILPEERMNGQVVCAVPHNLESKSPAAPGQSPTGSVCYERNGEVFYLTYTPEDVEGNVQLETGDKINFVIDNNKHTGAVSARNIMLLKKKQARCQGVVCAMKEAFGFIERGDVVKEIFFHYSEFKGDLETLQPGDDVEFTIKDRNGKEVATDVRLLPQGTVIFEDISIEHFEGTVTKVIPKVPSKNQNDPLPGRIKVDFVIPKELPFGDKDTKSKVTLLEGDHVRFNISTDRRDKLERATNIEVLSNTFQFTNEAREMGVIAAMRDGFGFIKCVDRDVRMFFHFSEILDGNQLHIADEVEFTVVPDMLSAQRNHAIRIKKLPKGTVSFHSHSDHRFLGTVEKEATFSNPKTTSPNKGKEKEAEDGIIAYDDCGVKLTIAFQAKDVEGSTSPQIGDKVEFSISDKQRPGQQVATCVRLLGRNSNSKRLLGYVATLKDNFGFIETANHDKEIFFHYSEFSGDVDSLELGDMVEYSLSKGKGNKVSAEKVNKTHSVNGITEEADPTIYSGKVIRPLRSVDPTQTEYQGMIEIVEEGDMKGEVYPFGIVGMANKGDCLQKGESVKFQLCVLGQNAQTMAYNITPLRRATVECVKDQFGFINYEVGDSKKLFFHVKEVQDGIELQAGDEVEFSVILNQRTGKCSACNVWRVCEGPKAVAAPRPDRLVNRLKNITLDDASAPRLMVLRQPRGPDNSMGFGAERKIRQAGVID

Substance | FRET efficiency (one-population analysis) | FRET efficiency of the interacting population (two-population analysis) | percent of eGFP-Unr interacting (two-population analysis) | average FRET efficiency (one-population analysis)
GagG2A-mCherry (natural protein) | 7.5% | 46% | 25% | 
NCp7-mCherry (natural protein) |  | > 35% | 21% | 5.1%
mCherry-NCp7 (natural protein) |  | > 35% | 26% | 6.8%
